Values of other authors as cited in patent US12440573B2, “Antibody-conjugates for targeting of tumours expressing PTK7” (Synaffix B.V., priority 2022, dated 2025).

What was measured:
[1] = test system: locally advanced/metastatic, PTK7-positive NSCLC, TNBC, and platinum-resistant OvCa; conditions: previously treated patients, administered every 2 or 3 weeks
[2] = test system: patient-derived, tumor xenograft preclinical models

B1: PF-06647020: prior-art ADC: humanized anti-PTK7 antibody with auristatin microtubule inhibitor payload (Aur0101) (conjugate, chains of the INN, looked up)
VH: QVQLVQSGPEVKKPGASVKVSCKASGYTFTDYAVHWVRQAPGKRLEWIGVISTYNDYTYNNQDFKGRVTMTRDTSASTAYMELSRLRSEDTAVYYCARGNSYFYALDYWGQGTSVTVSS
VL: EIVLTQSPATLSLSPGERATLSCRASESVDSYGKSFMHWYQQKPGQAPRLLIYRASNLESGIPARFSGSGSGTDFTLTISSLEPEDFAVYYCQQSNEDPWTFGGGTKLEIK
modifications: Aur0101 auristatin payload
clinical activity [1]: preliminary clinical activity | safety profile [1]: tolerable safety profile | tumor regression [2]: prolonged tumor regression
